{
  "source": "patent US20210340273A1",
  "about": "(INHLBRX, published 2021)",
  "data": [
    {"target": "T1, human 5T4 (trophoblast glycoprotein), endogenous on the cell surface (human, UniProt Q13641 32-420)", "T1 construct": "also called TPBG; 5T4 oncofetal antigen", "T1 sequence": "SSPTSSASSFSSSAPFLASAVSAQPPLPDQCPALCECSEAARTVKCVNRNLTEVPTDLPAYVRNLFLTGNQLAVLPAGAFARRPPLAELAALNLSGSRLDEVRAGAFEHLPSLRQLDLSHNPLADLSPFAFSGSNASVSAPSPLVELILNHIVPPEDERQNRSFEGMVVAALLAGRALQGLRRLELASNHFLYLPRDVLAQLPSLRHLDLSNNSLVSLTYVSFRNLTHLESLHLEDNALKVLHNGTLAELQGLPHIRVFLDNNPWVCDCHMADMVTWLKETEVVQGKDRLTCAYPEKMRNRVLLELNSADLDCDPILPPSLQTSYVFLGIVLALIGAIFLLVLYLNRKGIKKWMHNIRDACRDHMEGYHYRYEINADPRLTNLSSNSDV", "assay": "flow cytometry (FL4H median), sdAb-Fc titrated on 5T4-positive T47D cells", "protocol": "(§1) Specificity and relative affinity were assessed for purified sdAb-Fcs on 5T4-expressing cells. Binding of 5T4-sdAb-Fc fusion proteins was assessed by flow cytometry using 5T4-expressing cells. A titration series of the fusion protein was incubated with the 5T4-expressing cell lines (approximately 2.5×10⁴ to 5×10⁴ cells/well) for 30 minutes at 4 degrees Celsius in FACS Buffer (PBS 1% BSA, 0.1% NaN₃ pH 7.4) in 96 well plates. Following three wash steps in FACS buffer, an APC-conjugated anti-human Fcγ specific secondary antibody (Jackson ImmunoResearch) was added and incubated for 30 minutes at 4 degrees Celsius. Following three additional wash steps in FACS buffer bound antibody was detected via flow cytometry (IQue Intellicyte).\n(§2) Humanized variant of the 5T4 sdAbs were tested for their ability to bind 5T4 expressing cells substantially as described in Example 2, and binding was compared to the parental sdAb. 5T4 expressing T47D cells were used in these studies. Results are shown in FIGS. 2A-2F, which confirm binding of the humanized variants. In some cases, binding was increased compared to the parental sdAb.", "units": {"EC50 (read off the curve)": "nM"}, "values": [
      {"binder": "hz14B5v4 sdAb-Fc (Fc fusion, Humanized variant of 14B5, linked to a human Fc; not shown: human Fc) EVQLVESGGGEVQPGGSLRLSCAASERPFGTYAMGWFRQAPGKERDLVAAVSRNGGASQYAESVKGRFTISRDNAKNTVYLQMSSLRAEDTAVYYCAARSAAYSRSSEVYTGKDEYYYWGQGTLVTVKP", "binding result": "binds"},
      {"binder": "hz14B5v7 sdAb-Fc (Fc fusion, Humanized variant of 14B5, linked to a human Fc; not shown: human Fc) EVQLVESGGGEVQPGGSLRLSCAASERPFGTYAMGWFRQAPGKERDLVAAVSRQGGASQYAESVKGRFTISRDNAKNTMYLQMSSLRAEDTAVYYCAARSAAYSRSSEVYTGKDEYYYWGQGTLVTVKP", "EC50 (read off the curve)": "~2"},
      {"binder": "hz14B5v5 sdAb-Fc (Fc fusion, Humanized variant of 14B5, linked to a human Fc; not shown: human Fc) EVQLVESGGGEVQPGGSLRLSCAASERPFGTYAMGWFRQAPGKERDLVAAVSRNAGASQYAESVKGRFTISRDNAKNTMYLQMSSLRAEDTAVYYCAARSAAYSRSSEVYTGKDEYYYWGQGTLVTVKP", "binding result": "binds"},
      {"binder": "hz14B5v10 sdAb-Fc (Fc fusion, Humanized variant of 14B5, linked to a human Fc; also called hz14B510; not shown: human Fc) EVQLVESGGGEVQPGGSLRLSCAASERPFGTYAMGWFRQAPGKERDLVAAVSRNGGASQYGESVKGRFTISRDNAKNTMYLQMSSLRAEDTAVYYCAARSAAYSRSSEVYTGKDEYYYWGQGTLVTVKP", "binding result": "binds"},
      {"binder": "hz14B5v6 sdAb-Fc (Fc fusion, Humanized variant of 14B5, linked to a human Fc; not shown: human Fc) EVQLVESGGGEVQPGGSLRLSCAASERPFGTYAMGWFRQAPGKERDLVAAVSRNTGASQYAESVKGRFTISRDNAKNTMYLQMSSLRAEDTAVYYCAARSAAYSRSSEVYTGKDEYYYWGQGTLVTVKP", "binding result": "binds"},
      {"binder": "hz14B5v1 sdAb-Fc (Fc fusion, Humanized variant of 14B5, linked to a human Fc; not shown: human Fc) EVQLVESGGGEVQPGGSLRLSCAASERPFGTYAMGWFRQAPGKGRDLVSAVSRNGGASQYAESVKGRFTISRDNAKNTLYLQMSSLRAEDTAVYYCAARSAAYSRSSEVYTGKDEYYYWGQGTLVTVKP", "binding result": "binds"},
      {"binder": "hz14B5v3 sdAb-Fc (Fc fusion, Humanized variant of 14B5, linked to a human Fc; not shown: human Fc) EVQLVESGGGEVQPGGSLRLSCAASERPFGTYAMGWFRQAPGKERDLVAAVSRNGGASQYAESVKGRFTISRDNAKNTMYLQMSSLRAEDTAVYYCAARSAAYSRSSEVYTGKDEYYYWGQGTLVTVKP", "binding result": "binds"},
      {"binder": "hz14B5v8 sdAb-Fc (Fc fusion, Humanized variant of 14B5, linked to a human Fc; not shown: human Fc) EVQLVESGGGEVQPGGSLRLSCAASERPFGTYAMGWFRQAPGKERDLVAAVSRGGGASQYAESVKGRFTISRDNAKNTMYLQMSSLRAEDTAVYYCAARSAAYSRSSEVYTGKDEYYYWGQGTLVTVKP", "EC50 (read off the curve)": "~2"},
      {"binder": "hz14B5v9 sdAb-Fc (Fc fusion, Humanized variant of 14B5, linked to a human Fc; not shown: human Fc) EVQLVESGGGEVQPGGSLRLSCAASERPFGTYAMGWFRQAPGKERDLVAAVSRNGGASQYGDSVKGRFTISRDNAKNTMYLQMSSLRAEDTAVYYCAARSAAYSRSSEVYTGKDEYYYWGQGTLVTVKP", "binding result": "binds"},
      {"binder": "hz16G10v1 sdAb-Fc (Fc fusion, Humanized variant of 16G10, linked to a human Fc; not shown: human Fc) EVQLVESGGGEVQPGGSLRLSCAASGRPFSSSAMGWFRQAPGKGRETVSAVSRNGGSSYYAESVKGRFTISRDNAKNTLYLQMSSLRAEDTAVYYCAARSAAYSRSSETYTEKHDYTYWGQGTLVTVKP", "EC50 (read off the curve)": "~2"},
      {"binder": "hz16G10v9 sdAb-Fc (Fc fusion, Humanized variant of 16G10, linked to a human Fc; not shown: human Fc) EVQLVESGGGEVQPGGSLRLSCAASGRPFSSSAMGWFRQAPGKERETVAAVSRNGGSSYYAESVKGRFTISRDNDKNTVYLQMSSLRAEDTAVYYCAARSAAYSRSSETYTEKHDYTYWGQGTLVTVKP", "binding result": "binds"},
      {"binder": "hz16G10v4 sdAb-Fc (Fc fusion, Humanized variant of 16G10, linked to a human Fc; not shown: human Fc) EVQLVESGGGEVQPGGSLRLSCAASGRPFSSSAMGWFRQAPGKERETVAAVSRQGGSSYYAESVKGRFTISRDNAKNTVYLQMSSLRAEDTAVYYCAARSAAYSRSSETYTEKHDYTYWGQGTLVTVKP", "EC50 (read off the curve)": "~9"},
      {"binder": "hz16G10v6 sdAb-Fc (Fc fusion, Humanized variant of 16G10, linked to a human Fc; not shown: human Fc) EVQLVESGGGEVQPGGSLRLSCAASGRPFSSSAMGWFRQAPGKERETVAAVSRNAGSSYYAESVKGRFTISRDNAKNTVYLQMSSLRAEDTAVYYCAARSAAYSRSSETYTEKHDYTYWGQGTLVTVKP", "binding result": "binds"},
      {"binder": "hz16G10v8 sdAb-Fc (Fc fusion, Humanized variant of 16G10, linked to a human Fc; not shown: human Fc) EVQLVESGGGEVQPGGSLRLSCAASGRPFSSSAMGWFRQAPGKERETVAAVSRNGGSSYYADFVKGRFTISRDNAKNTVYLQMSSLRAEDTAVYYCAARSAAYSRSSETYTEKHDYTYWGQGTLVTVKP", "binding result": "binds"},
      {"binder": "hz16G10v3 sdAb-Fc (Fc fusion, Humanized variant of 16G10, linked to a human Fc; not shown: human Fc) EVQLVESGGGEVQPGGSLRLSCAASGRPFSSSAMGWFRQAPGKERETVAAVSRNGGSSYYAESVKGRFTISRDNAKNTVYLQMSSLRAEDTAVYYCAARSAAYSRSSETYTEKHDYTYWGQGTLVTVKP", "EC50 (read off the curve)": "~2"},
      {"binder": "hz16G10v2 sdAb-Fc (Fc fusion, Humanized variant of 16G10, linked to a human Fc; not shown: human Fc) EVQLVESGGGEVQPGGSLRLSCAASGRPFSSSAMGWFRQAPGKERETVAAVSRNGGSSYYAESVKGRFTISRDNAKNTLYLQMSSLRAEDTAVYYCAARSAAYSRSSETYTEKHDYTYWGQGTLVTVKP", "EC50 (read off the curve)": "~2"},
      {"binder": "hz16G10v5 sdAb-Fc (Fc fusion, Humanized variant of 16G10, linked to a human Fc; not shown: human Fc) EVQLVESGGGEVQPGGSLRLSCAASGRPFSSSAMGWFRQAPGKERETVAAVSRGGGSSYYAESVKGRFTISRDNAKNTVYLQMSSLRAEDTAVYYCAARSAAYSRSSETYTEKHDYTYWGQGTLVTVKP", "EC50 (read off the curve)": "~5"},
      {"binder": "hz12E9v4 sdAb-Fc (Fc fusion, Humanized variant of 12E9, linked to a human Fc; not shown: human Fc) EVQLVESGGGEVQPGGSLRLSCAASRRPFSSKTMAWFRQAPGKEREFVAAVRWIGGATRYTESVKGRFTISRDNAKNTVYLQMSSLRAEDTAVYYCAAGQAWGTKFTDYSDWGQGTLVTVKP", "EC50 (read off the curve)": "~0.2"},
      {"binder": "hz12E9v6 sdAb-Fc (Fc fusion, Humanized variant of 12E9, linked to a human Fc; not shown: human Fc) EVQLVESGGGEVQAGGSLRLSCAASRRPFSSKTMAWFRQTPGKEREFVAAVRWIGGATRYAESVKGRFTISRDNAKNTVYLQMSSLRAEDTAVYYCAAGQAWGTKFTDYSDWGQGTLVTVKP", "binding result": "binds"},
      {"binder": "hz12E9v1 sdAb-Fc (Fc fusion, Humanized variant of 12E9, linked to a human Fc; not shown: human Fc) EVQLVESGGGEVQPGGSLRLSCAASRRPFSSKTMAWFRQAPGKGREFVAAVRWIGGATRYAESVKGRFTISRDNAKNTLYLQMSSLRAEDTAVYYCAAGQAWGTKFTDYSDWGQGTLVTVKP", "binding result": "binds"},
      {"binder": "hz12E9v2 sdAb-Fc (Fc fusion, Humanized variant of 12E9, linked to a human Fc; not shown: human Fc) EVQLVESGGGEVQPGGSLRLSCAASRRPFSSKTMAWFRQAPGKEREFVAAVRWIGGATRYAESVKGRFTISRDNAKNTLYLQMSSLRAEDTAVYYCAAGQAWGTKFTDYSDWGQGTLVTVKP", "EC50 (read off the curve)": "~0.2"},
      {"binder": "hz12E9v3 sdAb-Fc (Fc fusion, Humanized variant of 12E9, linked to a human Fc; not shown: human Fc) EVQLVESGGGEVQPGGSLRLSCAASRRPFSSKTMAWFRQAPGKEREFVAAVRWIGGATRYAESVKGRFTISRDNAKNTVYLQMSSLRAEDTAVYYCAAGQAWGTKFTDYSDWGQGTLVTVKP", "EC50 (read off the curve)": "~0.2"}
    ]},
    {"target": "T1, human 5T4 (trophoblast glycoprotein), …", "assay": "flow cytometry (FL4H median), sdAb-Fc titrated on 5T4-positive T47D cells", "remark": "another data set of the same source", "protocol": "as §1, §2", "units": {"EC50 (read off the curve)": "nM"}, "values": [
      {"binder": "hz14B5v14 sdAb-Fc (Fc fusion, Humanized variant of 14B5, linked to a human Fc; not shown: human Fc) EVQLVESGGGEVQPGGSLRLSCAASERPFGTYAMGWFRQAPGKEREFVAAVSRNAGASQYAESVKGRFTISRDNAKNTMYLQMSSLRAEDTAVYYCAARSAAYSRSSEVYTGKDEYYYWGQGTLVTVKP", "EC50 (read off the curve)": "~2"},
      {"binder": "hz14B5v13 sdAb-Fc (Fc fusion, Humanized variant of 14B5, linked to a human Fc; not shown: human Fc) EVQLVESGGGEVQPGGSLRLSCAASERPFGTYAMGWFRQAPGKERETVAAVSRNAGASQYAESVKGRFTISRDNAKNTMYLQMSSLRAEDTAVYYCAARSAAYSRSSEVYTGKDEYYYWGQGTLVTVKP", "EC50 (read off the curve)": "~2"},
      {"binder": "hz14B5v11 sdAb-Fc (Fc fusion, Humanized variant of 14B5, linked to a human Fc; also called hz14B511; not shown: human Fc) EVQLVESGGGEVQAGDSLTLSCAVSERPFGTYAMGWFRQAPGRERDLVAAVSRNAGASQYAESVKGRFTISRDNAKNTMYLQMSSLRAEDTAVYYCAARSAAYSRSSEVYTGKDEYYYWGQGTLVTVKP", "EC50 (read off the curve)": "~2"},
      {"binder": "hz14B5v12 sdAb-Fc (Fc fusion, Humanized variant of 14B5, linked to a human Fc; not shown: human Fc) EVQLVESGGGEVQPGGSLRLSCAASERPFGTYAMGWFRQAPGKERDLVAAVSRNAGASQYGESVKGRFSISRDNIKNTMYLQMSSLKPEDTAVYYCAARSAAYSRSSEVYTGKDEYYYWGQGTLVTVKP", "EC50 (read off the curve)": "~2"}
    ]}
  ]
}
